T1: recombinant human regenerating islet-derived protein 1α (REG1A) (human, UniProt P05451 23-166, limits assumed)
T1 construct: also called recombinant human REG1A; recombinant REG1A
T1 sequence (looked up): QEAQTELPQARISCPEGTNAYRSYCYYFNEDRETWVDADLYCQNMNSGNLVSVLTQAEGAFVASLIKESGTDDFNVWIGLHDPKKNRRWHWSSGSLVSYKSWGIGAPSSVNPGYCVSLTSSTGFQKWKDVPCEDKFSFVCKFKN


Legend:
[1] = biological target: T1, recombinant human regenerating …; test: sandwich ELISA; capture 4H8F1; REG1A 100.00 ng/mL
How it was run: (§1)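 Sandwich ELISA with the capture monoclonal antibody coated overnight at 4 °C in PBS, then blocking for 2 h at 37 °C. Recombinant human REG1A in basic diluent (100 μL per well) was incubated for 1 h at 37 °C. It was then detected with a horseradish peroxidase-based detection antibody system and TMB substrate for 15 min at 37 °C, and stopped with 0.2M sulfuric acid. OD value is the absorbance at 450 nm minus that at 620/630 nm.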

[2] = biological target: T1, recombinant human regenerating …; test: sandwich ELISA; capture 21B11D2; REG1A 0 ng/mL (blank)
How it was run: as §1

[3] = biological target: T1, recombinant human regenerating …; test: sandwich ELISA; capture 4H8F1; REG1A 33.33 ng/mL
How it was run: as §1

[4] = biological target: T1, recombinant human regenerating …; test: sandwich ELISA; capture 25F3C4; REG1A 1.23 ng/mL
How it was run: as §1

[5] = biological target: T1, recombinant human regenerating …; test: sandwich ELISA; capture 21B11D2; REG1A 100.00 ng/mL
How it was run: as §1

[6] = biological target: T1, recombinant human regenerating …; test: sandwich ELISA; capture 25F3C4; REG1A 3.70 ng/mL
How it was run: as §1

[7] = biological target: T1, recombinant human regenerating …; test: sandwich ELISA; capture 12F12A10; REG1A 100.00 ng/mL
How it was run: as §1

[8] = biological target: T1, recombinant human regenerating …; test: sandwich ELISA; capture 11D11B11; REG1A 100.00 ng/mL
How it was run: as §1

[9] = biological target: T1, recombinant human regenerating …; test: sandwich ELISA; capture 21B11D2; REG1A 1.23 ng/mL
How it was run: as §1

[10] = biological target: T1, recombinant human regenerating …; test: sandwich ELISA; capture 12F12A10; REG1A 33.33 ng/mL
How it was run: as §1

[11] = biological target: T1, recombinant human regenerating …; test: sandwich ELISA; capture 11D11B11; REG1A 11.11 ng/mL
How it was run: as §1

[12] = biological target: T1, recombinant human regenerating …; test: sandwich ELISA; capture 4H8F1; REG1A 1.23 ng/mL
How it was run: as §1

[13] = biological target: T1, recombinant human regenerating …; test: sandwich ELISA; capture 25F3C4; REG1A 0 ng/mL (blank)
How it was run: as §1

[14] = biological target: T1, recombinant human regenerating …; test: sandwich ELISA; capture 12F12A10; REG1A 0 ng/mL (blank)
How it was run: as §1

[15] = biological target: T1, recombinant human regenerating …; test: sandwich ELISA; capture 21B11D2; REG1A 11.11 ng/mL
How it was run: as §1

[16] = biological target: T1, recombinant human regenerating …; test: sandwich ELISA; capture 11D11B11; REG1A 0 ng/mL (blank)
How it was run: as §1

[17] = biological target: T1, recombinant human regenerating …; test: sandwich ELISA; capture 25F3C4; REG1A 33.33 ng/mL
How it was run: as §1

[18] = biological target: T1, recombinant human regenerating …; test: sandwich ELISA; capture 21B11D2; REG1A 33.33 ng/mL
How it was run: as §1

[19] = biological target: T1, recombinant human regenerating …; test: sandwich ELISA; capture 11D11B11; REG1A 3.70 ng/mL
How it was run: as §1

[20] = biological target: T1, recombinant human regenerating …; test: sandwich ELISA; capture 4H8F1; REG1A 0 ng/mL (blank)
How it was run: as §1

[21] = biological target: T1, recombinant human regenerating …; test: sandwich ELISA; capture 12F12A10; REG1A 11.11 ng/mL
How it was run: as §1

[22] = biological target: T1, recombinant human regenerating …; test: sandwich ELISA; capture 4H8F1; REG1A 3.70 ng/mL
How it was run: as §1

[23] = biological target: T1, recombinant human regenerating …; test: sandwich ELISA; capture 25F3C4; REG1A 11.11 ng/mL
How it was run: as §1

[24] = biological target: T1, recombinant human regenerating …; test: sandwich ELISA; capture 4H8F1; REG1A 11.11 ng/mL
How it was run: as §1

[25] = biological target: T1, recombinant human regenerating …; test: sandwich ELISA; capture 21B11D2; REG1A 3.70 ng/mL
How it was run: as §1

[26] = biological target: T1, recombinant human regenerating …; test: sandwich ELISA; capture 11D11B11; REG1A 33.33 ng/mL
How it was run: as §1

[27] = biological target: T1, recombinant human regenerating …; test: sandwich ELISA; capture 12F12A10; REG1A 1.23 ng/mL
How it was run: as §1

[28] = biological target: T1, recombinant human regenerating …; test: sandwich ELISA; capture 11D11B11; REG1A 1.23 ng/mL
How it was run: as §1

[29] = biological target: T1, recombinant human regenerating …; test: sandwich ELISA; capture 12F12A10; REG1A 3.70 ng/mL
How it was run: as §1

[30] = biological target: T1, recombinant human regenerating …; test: sandwich ELISA; capture 25F3C4; REG1A 100.00 ng/mL
How it was run: as §1

Row | Binder | OD value [1] [OD] | OD value [2] [OD] | OD value [3] [OD] | OD value [4] [OD] | OD value [5] [OD] | OD value [6] [OD] | OD value [7] [OD] | OD value [8] [OD] | OD value [9] [OD] | OD value [10] [OD] | OD value [11] [OD] | OD value [12] [OD] | OD value [13] [OD] | OD value [14] [OD] | OD value [15] [OD] | OD value [16] [OD] | OD value [17] [OD] | OD value [18] [OD] | OD value [19] [OD] | OD value [20] [OD] | further results
1 | antibody 4H8F1 (antibody, V domains shown, Mouse monoclonal from hybridoma, stated mouse IgG1/Kappa; also called 4H8F1-biotin; Antibody 1) VH: QVTLKESGPGILQPSQTLSLTCSFSGFSLSTSGMSVGWIRQPSGKGLEWLAHIWWNDDKFYNPALKSRLTISKDTSKNQIFLKIASVVTADSATYYCARIEEGWFAYWGQGTLVTVST VL: SIVMTQTPKFLLVSVGDRVTITCKASQTMSNDVAWYQQKPGQSPKLLIYYASNRYTGVPDRFTGSGYGTDFTFTISTVQAEDLAVYFCQQDYSSPLTFGAGTKLELKR | 0.09 | 0.075 | 0.081 | 0.087 | 0.084 | 0.082 | 3.18 | 4.24 | 0.078 | 3.27 | 3.87 | 0.074 | 0.076 | 0.068 | 0.073 | 1.21 | 0.085 | 0.078 | 2.87 | 0.074 | OD value [21]: 3.05 OD; OD value [22]: 0.079 OD; OD value [23]: 0.078 OD; OD value [24]: 0.081 OD; OD value [25]: 0.077 OD; OD value [26]: 4.48 OD; OD value [27]: 1.3 OD; OD value [28]: 1.37 OD; OD value [29]: 2.42 OD; OD value [30]: 0.086 OD
2 | antibody 11D11B11 (antibody, mouse IgG2a, kappa, V domains shown, Mouse monoclonal from hybridoma, stated mouse IgG1/Kappa; Used unlabelled as capture and biotin-labelled as detection antibody; also called 11D11B11-biotin) VH: DVKLVESGGGLVKPGGSLKLSCAASGFTFSSFSMSWFRQTPDKRLEWVATISSGGSSTYYPDSVKGRFTISRDNAKNTLYLQMTSLKSEDTAIFYCRGGYYGNYDPLDYWGQGTSVTVSA VL: DIVMIQSQKFMSTSVGDRVSITCTASHNVDSNVAWYQQKPGQSPQALIYSASYRYSGVPDRFTGSGSGTDFTLTINNVQSEDLAEYFCQQYNSYPLTFGGGTRLEIKR | 4.24 | 0.074 | 4.22 | 0.071 | 0.075 | 0.076 | 3.15 | 0.064 | 0.089 | 3.03 | 0.072 | 2.46 | 0.074 | 0.075 | 0.077 | 0.079 | 0.083 | 0.077 | 0.066 | 0.21 | OD value [21]: 2.69 OD; OD value [22]: 3.74 OD; OD value [23]: 0.079 OD; OD value [24]: 4.1 OD; OD value [25]: 0.069 OD; OD value [26]: 0.064 OD; OD value [27]: 0.934 OD; OD value [28]: 0.066 OD; OD value [29]: 1.54 OD; OD value [30]: 0.089 OD
3 | antibody 12F12A10 (antibody, V domains shown, Mouse monoclonal from hybridoma, stated mouse IgG1/Kappa; also called 12F12A10-biotin; Antibody 2) VH: QVQLQQSATELARPGASVKMSCKASGYTFTSYMMHWVKQRPGQGLEWIGYINPSSGYTDYNQKFKDKTTLTADKSSSTAYMQLSSLTSEDSAVYYCARYRYPHYFDYWGQGTTLTVSS VL: QIVLTQSPAIMSASPGEKVTMTCSASSSVSYIHWYQQKSGTSPKRWIYDTSKLASGVPARFSGSGSGTSYSLTISSMEAEDAAIYYCQQWSSNPPTFGAGTKLELKR | 4.33 | 0.09 | 4.33 | 3.76 | 4.65 | 4.25 | 0.096 | 4.22 | 3.9 | 0.098 | 3.9 | 2.99 | 0.093 | 0.089 | 4.23 | 0.083 | 4.29 | 4.59 | 2.81 | 0.088 | OD value [21]: 0.088 OD; OD value [22]: 3.84 OD; OD value [23]: 4.37 OD; OD value [24]: 4.22 OD; OD value [25]: 4.59 OD; OD value [26]: 4.08 OD; OD value [27]: 0.098 OD; OD value [28]: 1.05 OD; OD value [29]: 0.088 OD; OD value [30]: 4.48 OD

From patent US20240241135A1 (SENBOLL BIOTECHNOLOGY, published 2024)
